The record followed here is patent US20170037149A1 (Amgen, published 2017).

This test has as its target T1, human FLT3 (human, UniProt P36888 27-993).
T1 construct: On transfected CHO cells, or on the FLT3 positive human AML cell lines EOL-1 / MV4-11 where the row says so; also called hu FLT3; full length human FLT3
The experiment in a line: FACS, scFv on CHO-human FLT3 pre-incubated with FLT3 ligand (competitor).

Changes are numbered by the printed parent chain.

Description: The detection was performed using mouse anti-FLAG+PE-conjugated goat anti-mouse and the Fluorescence median detected by FACS (median (+ligand)/median (w/o ligand)*100%)
Afterwards cells were not washed but directly stained with FLT3 binder (scFv's). […] As negative control, cells were incubated with an unspecific scFv instead of FLT3 scFv.
For the evaluation of the data, the fluorescence median was detected by FACS.

B1: FL-14 scFv (scFv)
scFv: QVTLKESGPALVKPTETLTLTCTLSGFSLNNARMAVSWIRQPPGKTLEWLAHIFSNDEKSYSTSLKSRLTISKDTSKGQVVLTMTNMDPVDTATYYCARIVGYGSGWYGYFDYWGQGTLVTVSSGGGGSGGGGSGGGGSDIQMTQSPSSLSASVGDRVTITCRASQDIRNDLGWYQQKPGKAPKRLIYAASTLQSGVPSRFSGSGSGTEFTLTISSLQPEDFATYYCLQHNSYPLTFGGGTKVEIK
notes: periplasmic prep
B1: the “median [+ligand]/median [w/o ligand]*100” value is at least 75%.

B2: FL-12 scFv (scFv)
scFv: QVTLKESGPALVKPTETLTLTCTVSGFSLSNARMGVSWIRQPPGKALEWLANIFSNDEKSYSTSLKSRLTISKGTSKSQVVLTMTNMDPEDTATYYCARIVGYGSGWYGYFDYWGQGTLVTVSSGGGGSGGGGSGGGGSDIQMTQSPSSLSASVGDRVTITCRASQGIRNDLGWYQQKPGKAPQRLIYAASSLQSGVPSRFSGSGSGTEFTLTISSLQPEDFATYYCLQHNSYPLTFGGGTKVEIK
notes: periplasmic prep
With B2, the “median [+ligand]/median [w/o ligand]*100” value is at least 75%.

B3: FL-16 scFv (scFv)
scFv: B1 scFv with A10V, L24V, N30R, G78S, L150V, N170Y, G173A, T192S, S232F
notes: periplasmic prep
For B3, the “median [+ligand]/median [w/o ligand]*100” value is at least 75%.

B4: FL-15 scFv (scFv)
scFv: B1 scFv with R169G, T192S
notes: periplasmic prep
Regarding B4, the “median [+ligand]/median [w/o ligand]*100” value is at least 75%.

B5: FL-20 scFv (scFv)
scFv: B1 scFv with G78S, V90E, S105T, Y110F, T118I, D167G, G173A, T192S
notes: periplasmic prep
For the molecule B5, the “median [+ligand]/median [w/o ligand]*100” value is at least 75%.

B6: FL-4 scFv (scFv)
scFv: B1 scFv with R33K, A35G, T46A, N170D, K181N, A189G, E244D
notes: periplasmic prep
In the case of B6, the “median [+ligand]/median [w/o ligand]*100” value is at least 75%.

B7: FL-11 scFv (scFv)
scFv: B1 scFv with A10V, R33K, A35G, T46A, H52Q, D57G, A98S, D167G, A189G
notes: periplasmic prep
Consider B7, for which the “median [+ligand]/median [w/o ligand]*100” value was at least 75%.

B8: FL-13 scFv (scFv)
scFv: B1 scFv with A10T, A35G, T46A, S67N, T75S, G78T, M87V, Y110F, D167G
notes: periplasmic prep
As for B8, the “median [+ligand]/median [w/o ligand]*100” value was at least 75%.

B9: FL-6 scFv (scFv)
scFv: QVTLKESGPTLVKPTETLTLTCTLSGFSLNNARMAVSWIRQPPGKTLEWLAHIFSNDEKSYSPSLKSRLTISKDTSKSQVVLTMTNMDPEDTATYYCARIVGYGTGWYGFFDYWGQGILVTVSSGGGGSGGGGSGGGGSDIQMTQSPSSLSASVGDRVTITCRASQGIRNDLGWFQQKPGKAPKRLIYAASVLQSGVPSRFSGSGSGTEFTLTISSLQPEDFATYYCLQHNSYPLTFGGGTKVDIK
notes: periplasmic prep
In the case of B9, the “median [+ligand]/median [w/o ligand]*100” value is at least 75%.

B10: FL-32 scFv (scFv)
scFv: QVTLKESGPTLVKPTETLTLTCTVSGFSFRNARMGVSWIRQPPGKALEWLAHIFSNDEKSYSTSLKSRLTISKDTSKGQVVLTMTNMDPVDTATYYCARIVGYGSGWYGYFDYWGQGTLVTVSSGGGGSGGGGSGGGGSDIQMTQSPSSLSASVGDRVTITCRASQGIRNDLVWYQQKPGKAPKRLIYAASTLQSGVPSRFSGSGSGTEFILTISSLQPEDFATYFCLQHYSYPLTFGGGTKLEIK
notes: periplasmic prep
On to B10, for which the “median [+ligand]/median [w/o ligand]*100” value is at least 75%.

B11: FL-29 scFv (scFv)
scFv: B2 scFv with E16Q, V24F, N52H, S62R, G74D, E90V, G109A, Q184K
notes: periplasmic prep
Regarding B11, the “median [+ligand]/median [w/o ligand]*100” value is at least 75%.

B12: FL-26 scFv (scFv)
scFv: QVTLKESGPVLVKPTETLTLTCTVSGFSFRNARMGVSWIRQPPGKALEWLAHIFSNDEKSYSTSLKSRLTISKDTSKSQVVLTLTNMDPVDTATYFCARMPEYSSGWSGAFDIWGQGTMVTVSSGGGGSGGGGSGGGGSDIQMTQSPSSLSASVGDRVTITCRASQGIRNDLVWYQQKPGKAPKRLIYGTSTLQSGVPSRFSGSGSGTEFTLTISSLQPEDFATYYCLQHNSYPLTFGGGTKVEIK
notes: periplasmic prep
As for B12, the “median [+ligand]/median [w/o ligand]*100” value is at least 75%.

B13: FL-22 scFv (scFv)
scFv: B12 scFv with R169S, D171Y, V173A, G189A, T190A, S232T, L235W, G239Q
notes: periplasmic prep
As to B13, the “median [+ligand]/median [w/o ligand]*100” value is at least 75%.

B14: FL-25 scFv (scFv)
scFv: B12 scFv with V10A, G167D, N170D, V173G, G189A, T190A, S202T, S204G, Y233F, L235F
notes: periplasmic prep
Turning to B14, the “median [+ligand]/median [w/o ligand]*100” value was at least 75%.

B15: FL-28 scFv (scFv)
scFv: B12 scFv with R169G, N170D, V173G, K178I, G189A, T192V
notes: periplasmic prep
On to B15, for which the “median [+ligand]/median [w/o ligand]*100” value is at least 75%.

B16: FL-27 scFv (scFv)
scFv: B12 scFv with A164T, G189A, T190A, Y226F, N231Y
notes: periplasmic prep
With B16, the “median [+ligand]/median [w/o ligand]*100” value was at least 75%.

B17: FL-24 scFv (scFv)
scFv: QVTLKESGPALVKPTETLTLTCTVSGFSLRNVRMGVSWIRQPPGKALEWLAHIFSNDEKSYSTSLKSRLTISKDTSKSQVVLILTNMDPVDTATYFCARMPEYSSGWSGAFDIWGQGTMVTVSSGGGGSGGGGSGGGGSDIQMTQSPSSLSASVGDRVTITCRASQDIRDDLVWYQQKPGKAPKRLIYAASTLQSGVPSRFSGSGSGTEFTLTISSLQPEDFATYYCLQHHSYPWTFGQGTKVEIK
notes: periplasmic prep
Regarding B17, the “median [+ligand]/median [w/o ligand]*100” value was at least 75%.

B18: FL-36 scFv (scFv)
scFv: B12 scFv with V10T, V24F, F29L, N31Y, G167D, V173A, G189A, T190A, T192S, V243L
notes: periplasmic prep
For B18, the “median [+ligand]/median [w/o ligand]*100” value is at least 75%.

B19: FL-37 scFv (scFv)
scFv: QVTLKESGPVLVKPTETLTLTCTVSGFSLRNIKMGVSWIRQPPGKALEWLAHIFSNDEKSYSTSLKSRLTISKDTSKSQVVLTLTNMDPVDTATYFCARMPEYSSGWSGAFDIWGQGTMVTVSSGGGGSGGGGSGGGGSDIQMTQSPSSLSASVGDRVTITCRASQDISNYLAWYQQKPGKAPKRLIYAASSLQSGVPSRFSGSGSGTEFTLTISSLQPEDFATYYCLQHNSFPLTFGGGTKLEIK
notes: periplasmic prep
For the molecule B19, the “median [+ligand]/median [w/o ligand]*100” value is at least 75%.

B20: FL-52 scFv (scFv)
scFv: B19 scFv with V10T, V24F, N31Y, I32A, K33R, A46C, S169R, Y171D, F233Y, G239C
notes: periplasmic prep
Consider B20, for which the “median [+ligand]/median [w/o ligand]*100” value is at least 75%.

B21: FL-43 scFv (scFv)
scFv: B12 scFv with A46C, G239C
notes: periplasmic prep
Take B21: the “median [+ligand]/median [w/o ligand]*100” value was at least 75%.

B22: FL-10 scFv (scFv)
scFv: B12 scFv with G167D, N170D, V173G, K181N, T190A, E244D
notes: periplasmic prep
As to B22, the “median [+ligand]/median [w/o ligand]*100” value is at least 75%.

B23: FL-38 scFv (scFv)
scFv: B12 scFv with M119L, V173G, G189A, T190A, T192S, V243L
notes: periplasmic prep
On to B23, for which the “median [+ligand]/median [w/o ligand]*100” value was at least 75%.

B24: FL-23 scFv (scFv)
scFv: B17 scFv with L29F, V32A, I83T, R169G, D170Y, V173G, T213I, H231N, Y233F
notes: periplasmic prep
Consider B24, for which the “median [+ligand]/median [w/o ligand]*100” value was at least 75%.

B25: FL-44 scFv (scFv)
scFv: B12 scFv with A46C, A164T, G189A, T190A, Y226F, N231Y, G239C
notes: periplasmic prep
With B25, the “median [+ligand]/median [w/o ligand]*100” value is at least 75%.

B26: FL-59 scFv (scFv)
scFv: B17 scFv with A10M, I83T, V173G, K181N, A189G, H231N, W235L, Q239G, K242R, V243L
notes: periplasmic prep
Take B26: the “median [+ligand]/median [w/o ligand]*100” value was at least 75%.
